Laboratory results published in article PMC10253590, “The Product of the Fission Yeast fhl1 Gene Binds to the HomolE Box and Activates In Vitro Transcription of Ribosomal Protein Genes”.

Assays:
Fhl1 [1] = biological target: T1, Fhl1 (Schizosaccharomyces pombe, UniProt O14270 1-743); assay: competition; EMSA; 50 ng cold competitor vs N1 probe; 20 mM HEPES pH 7.9, 50 mM KCl, 10 mM MgCl2, 0.1 mM EDTA, 5% glycerol, 5 mM DTT, 0.1 mM PMSF, 5 ug acetylated BSA, 50 ng poly(dG-dC), no PEG; 5 min 25 C then 15; conditions: protein: recombinant; tags: His tag (pET15b; Ni-NTA purified)
T1 sequence: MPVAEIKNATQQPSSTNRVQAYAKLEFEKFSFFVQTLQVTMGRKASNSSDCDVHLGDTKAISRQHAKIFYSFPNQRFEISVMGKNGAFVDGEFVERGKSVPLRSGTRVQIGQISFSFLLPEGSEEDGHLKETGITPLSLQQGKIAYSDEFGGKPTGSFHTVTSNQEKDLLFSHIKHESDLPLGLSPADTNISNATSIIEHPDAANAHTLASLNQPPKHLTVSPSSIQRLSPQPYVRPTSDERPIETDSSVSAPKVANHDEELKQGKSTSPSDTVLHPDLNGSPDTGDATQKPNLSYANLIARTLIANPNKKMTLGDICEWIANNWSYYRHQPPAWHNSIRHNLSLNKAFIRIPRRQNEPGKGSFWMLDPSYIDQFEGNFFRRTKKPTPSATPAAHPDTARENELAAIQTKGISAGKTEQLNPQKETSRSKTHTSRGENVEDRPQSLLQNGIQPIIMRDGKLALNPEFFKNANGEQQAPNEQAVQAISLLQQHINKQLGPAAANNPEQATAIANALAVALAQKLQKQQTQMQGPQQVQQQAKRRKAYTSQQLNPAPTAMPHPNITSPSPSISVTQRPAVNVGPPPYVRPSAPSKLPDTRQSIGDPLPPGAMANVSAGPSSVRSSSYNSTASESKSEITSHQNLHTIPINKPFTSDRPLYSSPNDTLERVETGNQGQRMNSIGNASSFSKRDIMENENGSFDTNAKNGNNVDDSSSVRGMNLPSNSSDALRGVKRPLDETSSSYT

Fhl1 [2] = biological target: T1, Fhl1; assay: EMSA; 10 ng Fhl1; poly(dG-dC); 20 mM HEPES pH 7.9, 50 mM KCl, 10 mM MgCl2, 0.1 mM EDTA, 5% glycerol, 5 mM DTT, 0.1 mM PMSF, 5 ug acetylated BSA, 50 ng poly(dG-dC), no PEG; 5 min 25 C then 15; conditions: protein: recombinant; tags: His tag (pET15b; Ni-NTA purified); label: 32P 5' end
Fhl1 [3] = biological target: T1, Fhl1; assay: competition; EMSA; 12.5, 25, 50 ng cold competitor vs N1 probe; 20 mM HEPES pH 7.9, 50 mM KCl, 10 mM MgCl2, 0.1 mM EDTA, 5% glycerol, 5 mM DTT, 0.1 mM PMSF, 5 ug acetylated BSA, 50 ng poly(dG-dC), no PEG; 5 min 25 C then 15; conditions: protein: recombinant; tags: His tag (pET15b; Ni-NTA purified)

B1: mHE cold competitor (dsDNA)
DNA 1: TTCGTTGAGTGTAGTGTTGC
DNA 2: GCAACACTACACTCAACGAA
binding result (Fhl1 [1]): no binding

B2: HomolE probe (two tandem HomolE boxes) (dsDNA)
DNA 1: TTCGTTGAGGGTAGGGTTGAGGGTAGGGTTATGC
DNA 2: GCATAACCCTACCCTCAACCCTACCCTCAACGAA
binding result (Fhl1 [2]): binds

B3: HE cold competitor (dsDNA)
DNA 1: TTCGTTGAGGGTAGGGTTGC
DNA 2: GCAACCCTACCCTCAACGAA
binding result (Fhl1 [3]): binds

B4: HD (HomolD) cold competitor (dsDNA)
DNA 1: TGAAAACAGTCACATTTTAC
DNA 2: GTAAAATGTGACTGTTTTCA
binding result (Fhl1 [1]): no binding
